The experiment deals with T1, GAL4 DNA binding domain fused to the five SH3 domains of Ese1 (amino acids 665-1213) (mouse, UniProt P04386 1-147 (Saccharomyces cerevisiae entry)).
T1 construct: Yeast two-hybrid bait; also called pGBT9Ese1A3.3; SH3 domain bait of Ese1
The experiment in a line: yeast two-hybrid screen with amino acids 665-1213 of Ese1 as bait.

B1: Mouse YNK1 partial protein, GAL4 activation domain library clone (other, not shown: large carriers)
chain: LRAEGAKFRAVLDKAVQADGQVKERYQSHRDTIALLCKPEPELNAAIPSANPAKTMQGSEVVSVLKSLLSNLDEIKKERESLENDLKSVNFDMTSKFLTALAQDGVINEEALSVTELDRIYGGLTSKVQESLKKQEGLLKNIQVSHQEFSKMKQSNNEANLREEVLKNLATAYDNFVELVANLKEGTKFYNELTEILVRFQNKCSDIVFARKTERDELLKDLQQSIAREPSAPSIPPPAYQSSPAAGHAAAPPTPAPRTMPPAKPQPPARPPPPVLPANRVPPASAAAAPAGVGTASAAPPQTPGSAPPPQAQGPPYPTYPGYPGYCQMPMPMGYNPYAYGQYNMPYPPVYHQSPGQAPYPGPQQPTYPFPQPPQQSYYPQQ
With B1, the binding result is listed as “binds”.

These data come from patent US7118886 (HSC RESEARCH AND DEVELOPMENT LIMITED PARTNERSHIP, dated 2006).
